In assay [1] the target is hu IGF-1R(ECD)-C3-muIgG1Fc (human; mouse). As to the kind of experiment: ORIGEN competition: antibody vs 1 nM Ru-IGF-1 on IGF-1R(ECD)-C3-muFc beads.
Assay [2] shares this target. In words: ORIGEN competition: antibody vs 2 nM Ru-IGF-2 on IGF-1R(ECD)-C3-muFc beads.

“murine anti-IGF-1R antibody αIR3 (Calbiochem)”: in assay [1], the Ki was 5.3 nM and the Max (%), maximum level of inhibition at 1 µM antibody amounted to 91%.

Take “murine anti-IGF-1R antibody 1H7 (Santa Cruz Biotechnology)”: in assay [1], the Ki was 16 nM and the Max (%), maximum level of inhibition at 1 µM antibody is 89%. In addition, in assay [2], the Ki amounted to 13.1 nM and the Max (%), maximum level of inhibition at 1 µM antibody turned out to be 99%.

(Values after patent US20090285824A1.)
